Assay results reported in patent US20040071701A1, “Use of NGF-antagonists for the prevention or treatment of chronic visceral pain” (priority 2002, published 2004).

What was measured:
TNBS-treated rats = assay: Colonic distension-induced pain threshold in TNBS-treated rats (chronic colonic allodynia); format: in vivo, rat; conditions: 30 mg/kg s.c. in 20% cyclodextrin 30 minutes before distension, mean +/- SEM (n=7-8), vehicle 17.8+/-1.8, p<0.01
Protocol: (§1) Adult male rats of the Wistar strain, 320 to 350 g in weight (obtained from the Janvier farm, Le Genest-Saint-Isle, France) were used for all the experiments. They were kept under controlled conditions of temperature (20+/−1° C.), humidity (50+/−5%) and lighting (light from 7 to 19 hours). The animals were starved of food for 18 hours before the beginning of the experiments, the supply of water being maintained.
(§2) Distension studies were carried out on waking rats in isobaric mode, using pressure increments of 5 mm of mercury every thirty seconds. A latex balloon, placed in the distal part of the colon is linked to an electronic barostat. The pain threshold is defined as the pressure inducing the first abdominal contraction. Each rat is subjected to four distension trials so as to increase the reproducibility of the test. The mean of the pressure values is calculated on the thresholds observed for the four successive distensions.
A laparotomy is carried out on rats anaesthetized with acepromazine (12 mg/kg i.p.) and ketamine (80 mg/kg i.p.) so as to inject into the proximal colon the trinitrobenzenesulphonic acid (TNBS) (50 mg/kg) in ethanol at 30%. The rats are then placed in individual cages. The colonic distension experiment is performed seven days after the administration of TNBS. […]

naïve rats = assay: Colonic distension-induced pain threshold in naïve rats (isobaric balloon distension); format: in vivo, rat
Protocol: as §1, §2
2.5 S-NGF obtained from mouse submaxillary gland (marketed by the company SIGMA under the reference N-6009) is dissolved in 0.1% bovine serum albumin (BSA). Into the naïve rats, 0.1 ng to 100 ng of NGF are injected by the i.p. route, 30 minutes before the distension.
Naïve rats were subjected to distension experiments with a balloon placed in the distal part of the colon. […]

O=C1c2cccc3cc([N+](=O)[O-])cc(c23)C(=O)N1NCCO [ALE-0540]
colonic pain threshold (TNBS-treated rats): 37.6+/−4.5 mmHg

B1: NGF: 2.5 S-NGF obtained from mouse submaxillary gland (SIGMA reference N-6009) (protein, UniProt P01139 122-241, looked up)
Beta-nerve growth factor: SSTHPVFHMGEFSVCDSVSVWVGDKTTATDIKGKEVTVLAEVNINNSVFRQYFFETKCRASNPVESGCRGIDSKHWNSYCTTTHTFVKALTTDEKQAAWRFIRIDTACVCVLSRKATRRG
modifications: Beta-nerve growth factor
colonic pain threshold (naïve rats; naïve Wistar rats, 1 ng of NGF i.p. 30 minutes before distension, control (BSA) about 44 mmHg): less than 20 mmHg | effect on threshold of pain in the colon (naïve rats; naïve rats, increasing doses of NGF (0.1 ng to 100 ng) i.p.): significant reduction
